Patent US20110098217A1 (INDIANA UNIVERSITY RESEARCH AND TECHNOLOGY, published 2011)
Like-named read-outs stand apart in the source and are kept apart here. Bridge positions count the residues as written; N and C are the ends. Square brackets hold non-standard residues; d marks the D form. Ends that are not written are not given here. * marks the point of attachment. COCH2CH2S‑Chol = CC(C)CCC[C@@H](C)[C@H]1CC[C@H]2[C@@H]3CC=C4C[C@@H](SCCC(=O)*)CC[C@]4(C)[C@H]3CC[C@]12C; Abu(4-SO3H) = N[C@@H](CCS(=O)(=O)O)C(=O)O; PhLac = O=C(O)[C@@H](O)Cc1ccccc1; Aib = CC(C)(N)C(=O)O

Tests used:
human glucagon receptor [1] = molecular target: T1, human glucagon receptor (human, UniProt P47871 26-477); experiment: cell-based or functional assay
T1 sequence (P47871 26-477): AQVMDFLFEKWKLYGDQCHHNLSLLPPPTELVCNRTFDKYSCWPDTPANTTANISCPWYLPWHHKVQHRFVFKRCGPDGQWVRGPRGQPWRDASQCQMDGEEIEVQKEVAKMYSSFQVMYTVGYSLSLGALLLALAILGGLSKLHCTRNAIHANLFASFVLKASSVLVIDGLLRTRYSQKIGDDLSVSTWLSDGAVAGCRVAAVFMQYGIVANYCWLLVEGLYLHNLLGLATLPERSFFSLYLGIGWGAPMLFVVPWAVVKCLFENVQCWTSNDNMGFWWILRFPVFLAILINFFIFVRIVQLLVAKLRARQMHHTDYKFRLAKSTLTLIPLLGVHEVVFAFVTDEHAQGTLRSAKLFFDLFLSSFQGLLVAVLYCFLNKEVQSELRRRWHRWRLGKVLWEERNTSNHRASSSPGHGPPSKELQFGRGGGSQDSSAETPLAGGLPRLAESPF

[2] = molecular target: human GLP-1 receptor (human) (UniProt P43220); experiment: cell-based or functional assay
Chain of human GLP-1 receptor (human) (P43220 24-463): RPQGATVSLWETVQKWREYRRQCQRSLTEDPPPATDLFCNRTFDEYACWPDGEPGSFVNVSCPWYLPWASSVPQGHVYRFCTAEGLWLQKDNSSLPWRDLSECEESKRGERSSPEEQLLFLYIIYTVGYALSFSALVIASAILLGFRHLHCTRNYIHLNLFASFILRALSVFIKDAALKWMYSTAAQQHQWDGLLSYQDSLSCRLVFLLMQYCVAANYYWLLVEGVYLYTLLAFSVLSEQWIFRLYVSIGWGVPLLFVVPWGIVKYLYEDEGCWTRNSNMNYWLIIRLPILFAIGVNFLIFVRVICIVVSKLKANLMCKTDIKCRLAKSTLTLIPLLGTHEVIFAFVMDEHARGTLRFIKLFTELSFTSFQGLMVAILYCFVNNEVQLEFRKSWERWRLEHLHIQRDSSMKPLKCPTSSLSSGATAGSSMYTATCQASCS

[3] = molecular target: human glucagon receptor (human) (UniProt P47871); experiment: cell-based or functional assay
Chain of human glucagon receptor (human) (P47871 26-477): as the sequence (P47871 26-477) above

human glucagon receptor [4] = molecular target: T1, human glucagon receptor; experiment: cell-based or functional assay; remark: listed apart in the source
human GLP-1 receptor [5] = molecular target: T2, human GLP-1 receptor (human, UniProt P43220 24-463); experiment: cell-based or functional assay
human glucagon receptor [6] = molecular target: T1, human glucagon receptor; experiment: cell-based or functional assay; remark: listed apart in the source
human glucagon receptor [7] = molecular target: T1, human glucagon receptor; experiment: SPA competition vs 125I-glucagon, receptor membranes
[8] = molecular target: human glucagon receptor (human) (UniProt P47871); experiment: cell-based or functional assay; remark: listed apart in the source
[9] = molecular target: human glucagon receptor (human) (UniProt P47871); experiment: cell-based or functional assay; remark: listed apart in the source
[10] = molecular target: human GLP-1 receptor (human) (UniProt P43220); experiment: cell-based or functional assay; remark: listed apart in the source
human glucagon receptor [11] = molecular target: T1, human glucagon receptor; experiment: cell-based or functional assay; remark: listed apart in the source
human GLP-1 receptor [12] = molecular target: T2, human GLP-1 receptor; experiment: cell-based or functional assay; remark: listed apart in the source
human glucagon receptor [13] = molecular target: T1, human glucagon receptor; experiment: cell-based or functional assay; remark: listed apart in the source
human GLP-1 receptor [14] = molecular target: T2, human GLP-1 receptor; experiment: cell-based or functional assay; remark: listed apart in the source
human glucagon receptor [15] = molecular target: T1, human glucagon receptor; experiment: cell-based or functional assay; remark: listed apart in the source
human GLP-1 receptor [16] = molecular target: T2, human GLP-1 receptor; experiment: cell-based or functional assay; remark: listed apart in the source
human glucagon receptor [17] = molecular target: T1, human glucagon receptor; experiment: cell-based or functional assay; remark: listed apart in the source
human GLP-1 receptor [18] = molecular target: T2, human GLP-1 receptor; experiment: cell-based or functional assay; remark: listed apart in the source
human glucagon receptor [19] = molecular target: T1, human glucagon receptor; experiment: cell-based or functional assay; remark: listed apart in the source
human glucagon receptor [20] = molecular target: T1, human glucagon receptor; experiment: SPA competition vs 125I-glucagon, receptor membranes; remark: listed apart in the source

## [d-Cys^5(20kDaPEG), E^9]Glucagon(aa5-29)-NH2 (peptide)
Human glucagon receptor [1]
  IC50 (cAMP, inhibit 0.2 mM Glucagon): 14800 nM

## [E9, E16, K20] G(6-39) (peptide)
[2]
  GLP-1 agonism EC50: 1040 nM

## [E9, E16K20(lactam)]G(6-39) (peptide)
[2]
  GLP-1 EC50: 36 nM
  GLP-1 agonism EC50: 36.4 nM
[3]
  Glu IC50: 42 nM
  Glucagon IC50: 42 nM
  Glucagon antagonism IC50 (inhibit 0.2-0.8 nM glucagon): 42 nM

B1: K10-chol G(6-29) (peptide)
peptide: [PhLac]TSDK(COCH2CH2S‑Chol)SKYLDERRAKDFVQWLMDT-NH2
modifications: lactam 11-15; N-terminus assumed
SMILES: CSCC[C@H](NC(=O)[C@H](CC(C)C)NC(=O)[C@H](Cc1c[nH]c2ccccc12)NC(=O)[C@H](CCC(N)=O)NC(=O)[C@@H](NC(=O)[C@H](Cc1ccccc1)NC(=O)[C@H](CC(=O)O)NC(=O)[C@@H]1CCCCNC(=O)CC[C@H](NC(=O)[C@H](CC(=O)O)NC(=O)[C@H](CC(C)C)NC(=O)[C@H](Cc2ccc(O)cc2)NC(=O)[C@H](CCCCN)NC(=O)[C@H](CO)NC(=O)[C@H](CCCCNC(=O)CCS[C@H]2CC[C@@]3(C)C(=CC[C@H]4[C@@H]5CC[C@H]([C@H](C)CCCC(C)C)[C@@]5(C)CC[C@@H]43)C2)NC(=O)[C@H](CC(=O)O)NC(=O)[C@H](CO)NC(=O)[C@@H](NC(=O)[C@@H](O)Cc2ccccc2)[C@@H](C)O)C(=O)N[C@@H](CCCNC(=N)N)C(=O)N[C@@H](CCCNC(=N)N)C(=O)N[C@@H](C)C(=O)N1)C(C)C)C(=O)N[C@@H](CC(=O)O)C(=O)N[C@H](C(N)=O)[C@@H](C)O
Human glucagon receptor [4]
  Glucagon antagonism IC50 (inhibit 0.4 nM glucagon): 271 nM
Human GLP-1 receptor [5]
  GLP-1 agonism EC50: 35.2 nM

## SQGTFTS[Abu(4-SO3H)]YSKYLDSRRAQDFVQWLMNT-NH2 [[hCys^9(SO3H)]Glucagon(aa2-29)-NH2]
Human glucagon receptor [6]
  cAMP IC50: 147 nM
Human glucagon receptor [7]
  IC50: 13.2 nM

## FTSEYSKYLDERRAQDFVQWLMNTGPSSGAPPPS (C-terminal amide) [[E9, E16]G(6-39)]
[8]
  Glu IC50: 762 nM
  Glucagon antagonism IC50 (inhibit 0.2-0.8 nM glucagon): 762 nM
[9]
  Glucagon IC50: 762 nM

## FTSEYSKYLDERRAQDFVQWLMNTGPSSGAPPPS (lactam bridge Lys12-Glu16 (native glucagon numbering); C-terminal amide) [E9, K12E16(lactam) glucagon(6-39)]
[10]
  GLP-1 EC50: 63 nM
[8]
  Glu IC50: 2010 nM
[9]
  Glucagon IC50: 2010 nM

B2: [hCys^9(SO3H)]Glucagon(aa4-29)-NH2 (peptide)
peptide: GTFTS[Abu(4-SO3H)]YSKYLDSRRAQDFVQWLMNT-NH2
modifications: N-terminus assumed
SMILES: CSCC[C@H](NC(=O)[C@H](CC(C)C)NC(=O)[C@H](Cc1c[nH]c2ccccc12)NC(=O)[C@H](CCC(N)=O)NC(=O)[C@@H](NC(=O)[C@H](Cc1ccccc1)NC(=O)[C@H](CC(=O)O)NC(=O)[C@H](CCC(N)=O)NC(=O)[C@H](C)NC(=O)[C@H](CCCNC(=N)N)NC(=O)[C@H](CCCNC(=N)N)NC(=O)[C@H](CO)NC(=O)[C@H](CC(=O)O)NC(=O)[C@H](CC(C)C)NC(=O)[C@H](Cc1ccc(O)cc1)NC(=O)[C@H](CCCCN)NC(=O)[C@H](CO)NC(=O)[C@H](Cc1ccc(O)cc1)NC(=O)[C@H](CCS(=O)(=O)O)NC(=O)[C@H](CO)NC(=O)[C@@H](NC(=O)[C@H](Cc1ccccc1)NC(=O)[C@@H](NC(=O)CN)[C@@H](C)O)[C@@H](C)O)C(C)C)C(=O)N[C@@H](CC(N)=O)C(=O)N[C@H](C(N)=O)[C@@H](C)O
Human glucagon receptor [6]
  cAMP IC50: 68.4 nM
  cAMP pA2: 7.22
Human glucagon receptor [7]
  IC50: 41.5 nM

B3: [H1A2E3, E9, E16K20(Lactam), D28]G(1-29) (peptide)
peptide: HAEGTFTSEYSKYLDERRAKDFVQWLMDT-NH2
modifications: lactam 16-20; N-terminus assumed
SMILES: CSCC[C@H](NC(=O)[C@H](CC(C)C)NC(=O)[C@H](Cc1c[nH]c2ccccc12)NC(=O)[C@H](CCC(N)=O)NC(=O)[C@@H](NC(=O)[C@H](Cc1ccccc1)NC(=O)[C@H](CC(=O)O)NC(=O)[C@@H]1CCCCNC(=O)CC[C@H](NC(=O)[C@H](CC(=O)O)NC(=O)[C@H](CC(C)C)NC(=O)[C@H](Cc2ccc(O)cc2)NC(=O)[C@H](CCCCN)NC(=O)[C@H](CO)NC(=O)[C@H](Cc2ccc(O)cc2)NC(=O)[C@H](CCC(=O)O)NC(=O)[C@H](CO)NC(=O)[C@@H](NC(=O)[C@H](Cc2ccccc2)NC(=O)[C@@H](NC(=O)CNC(=O)[C@H](CCC(=O)O)NC(=O)[C@H](C)NC(=O)[C@@H](N)Cc2c[nH]cn2)[C@@H](C)O)[C@@H](C)O)C(=O)N[C@@H](CCCNC(=N)N)C(=O)N[C@@H](CCCNC(=N)N)C(=O)N[C@@H](C)C(=O)N1)C(C)C)C(=O)N[C@@H](CC(=O)O)C(=O)N[C@H](C(N)=O)[C@@H](C)O
Human glucagon receptor [11]
  Glucagon IC50: 130 nM
Human GLP-1 receptor [12]
  GLP-1 EC50: 0.2 nM
Human glucagon receptor [13]
  Glucagon antagonism IC50 (inhibit 0.2-0.8 nM glucagon): 129 nM
Human GLP-1 receptor [14]
  GLP-1 agonism EC50: 0.11 nM
Human glucagon receptor [15]
  Glucagon antagonism IC50 (inhibit 0.8 nM glucagon): 129 nM
Human GLP-1 receptor [16]
  GLP-1 agonism EC50: 0.11 nM
Human glucagon receptor [17]
  Glucagon antagonism IC50 (inhibit 0.8 nM glucagon): 129 nM
Human GLP-1 receptor [18]
  GLP-1 agonism EC50: 0.11 nM

B4: [hCys^9(SO3H)]Glucagon(aa6-29)-NH2 (peptide)
peptide: FTS[Abu(4-SO3H)]YSKYLDSRRAQDFVQWLMNT-NH2
notes: also called [hCys(SO3)9]Glucagon(aa6-29)-NH2
Human glucagon receptor [6]
  cAMP IC50: 133 nM
  cAMP pA2: 7.16
Human glucagon receptor [19]
  cAMP IC50: 133 nM
  cAMP pA2: 7.16
Human glucagon receptor [7]
  IC50: 59.1 nM
Human glucagon receptor [20]
  IC50: 59.1 nM

B5: K30-chol G(6-30) (peptide)
peptide: [PhLac]TSDYSKYLDERRAKDFVQWLMDTK(COCH2CH2S‑Chol)-NH2
modifications: lactam 11-15; N-terminus assumed
SMILES: CSCC[C@H](NC(=O)[C@H](CC(C)C)NC(=O)[C@H](Cc1c[nH]c2ccccc12)NC(=O)[C@H](CCC(N)=O)NC(=O)[C@@H](NC(=O)[C@H](Cc1ccccc1)NC(=O)[C@H](CC(=O)O)NC(=O)[C@@H]1CCCCNC(=O)CC[C@H](NC(=O)[C@H](CC(=O)O)NC(=O)[C@H](CC(C)C)NC(=O)[C@H](Cc2ccc(O)cc2)NC(=O)[C@H](CCCCN)NC(=O)[C@H](CO)NC(=O)[C@H](Cc2ccc(O)cc2)NC(=O)[C@H](CC(=O)O)NC(=O)[C@H](CO)NC(=O)[C@@H](NC(=O)[C@@H](O)Cc2ccccc2)[C@@H](C)O)C(=O)N[C@@H](CCCNC(=N)N)C(=O)N[C@@H](CCCNC(=N)N)C(=O)N[C@@H](C)C(=O)N1)C(C)C)C(=O)N[C@@H](CC(=O)O)C(=O)N[C@H](C(=O)N[C@@H](CCCCNC(=O)CCS[C@H]1CC[C@@]2(C)C(=CC[C@H]3[C@@H]4CC[C@H]([C@H](C)CCCC(C)C)[C@@]4(C)CC[C@@H]32)C1)C(N)=O)[C@@H](C)O
Human glucagon receptor [4]
  Glucagon antagonism IC50 (inhibit 0.4 nM glucagon): 575 nM
Human GLP-1 receptor [5]
  GLP-1 agonism EC50: 14.4 nM

## [Aib]EGT[PhLac]TSDYSKYLDERRAKDFVQWLMDT-NH2 (lactam 15-19; also: PLA6 linked to Thr5 by an ester bond (depsipeptide)) [Aib depsi lactam G(2-29)]
Human glucagon receptor [4]
  Glucagon antagonism IC50 (inhibit 0.4 nM glucagon): 11.8 nM
Human GLP-1 receptor [5]
  GLP-1 agonism EC50: 5.83 nM

B6: [hCys^9(SO3H)]Glucagon(aa5-29)-NH2 (peptide)
peptide: TFTS[Abu(4-SO3H)]YSKYLDSRRAQDFVQWLMNT-NH2
modifications: N-terminus assumed
SMILES: CSCC[C@H](NC(=O)[C@H](CC(C)C)NC(=O)[C@H](Cc1c[nH]c2ccccc12)NC(=O)[C@H](CCC(N)=O)NC(=O)[C@@H](NC(=O)[C@H](Cc1ccccc1)NC(=O)[C@H](CC(=O)O)NC(=O)[C@H](CCC(N)=O)NC(=O)[C@H](C)NC(=O)[C@H](CCCNC(=N)N)NC(=O)[C@H](CCCNC(=N)N)NC(=O)[C@H](CO)NC(=O)[C@H](CC(=O)O)NC(=O)[C@H](CC(C)C)NC(=O)[C@H](Cc1ccc(O)cc1)NC(=O)[C@H](CCCCN)NC(=O)[C@H](CO)NC(=O)[C@H](Cc1ccc(O)cc1)NC(=O)[C@H](CCS(=O)(=O)O)NC(=O)[C@H](CO)NC(=O)[C@@H](NC(=O)[C@H](Cc1ccccc1)NC(=O)[C@@H](N)[C@@H](C)O)[C@@H](C)O)C(C)C)C(=O)N[C@@H](CC(N)=O)C(=O)N[C@H](C(N)=O)[C@@H](C)O
Human glucagon receptor [6]
  cAMP IC50: 98.3 nM
  cAMP pA2: 6.77
Human glucagon receptor [7]
  IC50: 33.9 nM

B7: [G4T5, E9, E16K20(Lactam), D28] G(4-29) (peptide)
peptide: GTFTSEYSKYLDERRAKDFVQWLMDT-NH2
modifications: lactam 13-17; N-terminus assumed
SMILES: CSCC[C@H](NC(=O)[C@H](CC(C)C)NC(=O)[C@H](Cc1c[nH]c2ccccc12)NC(=O)[C@H](CCC(N)=O)NC(=O)[C@@H](NC(=O)[C@H](Cc1ccccc1)NC(=O)[C@H](CC(=O)O)NC(=O)[C@@H]1CCCCNC(=O)CC[C@H](NC(=O)[C@H](CC(=O)O)NC(=O)[C@H](CC(C)C)NC(=O)[C@H](Cc2ccc(O)cc2)NC(=O)[C@H](CCCCN)NC(=O)[C@H](CO)NC(=O)[C@H](Cc2ccc(O)cc2)NC(=O)[C@H](CCC(=O)O)NC(=O)[C@H](CO)NC(=O)[C@@H](NC(=O)[C@H](Cc2ccccc2)NC(=O)[C@@H](NC(=O)CN)[C@@H](C)O)[C@@H](C)O)C(=O)N[C@@H](CCCNC(=N)N)C(=O)N[C@@H](CCCNC(=N)N)C(=O)N[C@@H](C)C(=O)N1)C(C)C)C(=O)N[C@@H](CC(=O)O)C(=O)N[C@H](C(N)=O)[C@@H](C)O
Human GLP-1 receptor [12]
  GLP-1 EC50: 151 nM
Human glucagon receptor [15]
  Glucagon antagonism IC50 (inhibit 0.8 nM glucagon): 12.7 nM
Human GLP-1 receptor [16]
  GLP-1 agonism EC50: 151 nM
